Like-named read-outs stand apart in the source and are kept apart here.

For data set [1], the system named is His-UBQ10.
In data set [2] the target is T1, Flag-OsSPL14, Q7EXZ2.
T1 chain: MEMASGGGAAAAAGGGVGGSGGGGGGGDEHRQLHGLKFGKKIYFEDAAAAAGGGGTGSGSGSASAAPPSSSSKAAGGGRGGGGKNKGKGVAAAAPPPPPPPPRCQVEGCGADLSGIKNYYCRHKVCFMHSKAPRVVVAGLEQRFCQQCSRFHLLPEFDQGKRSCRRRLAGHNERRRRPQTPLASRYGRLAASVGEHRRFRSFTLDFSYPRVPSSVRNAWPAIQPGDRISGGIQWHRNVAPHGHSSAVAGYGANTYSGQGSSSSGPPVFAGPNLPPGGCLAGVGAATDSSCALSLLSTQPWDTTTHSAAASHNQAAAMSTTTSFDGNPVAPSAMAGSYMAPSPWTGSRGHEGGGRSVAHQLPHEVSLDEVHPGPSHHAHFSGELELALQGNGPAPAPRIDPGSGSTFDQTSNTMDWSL

Data set [3] addresses His-UBQ10. The source holds these as a separate data set.
The target in data set [4] is T2, full length OsUBC13 in pGADT7 (rice).
T2 construct: Yeast two-hybrid prey; not shown: fusion partner encoded by vector pGADT7
T2 chain: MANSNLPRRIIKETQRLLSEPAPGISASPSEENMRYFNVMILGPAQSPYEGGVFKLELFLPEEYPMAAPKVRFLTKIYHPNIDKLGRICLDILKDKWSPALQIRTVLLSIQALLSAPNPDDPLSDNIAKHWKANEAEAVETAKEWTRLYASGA
Kind of data set: yeast two-hybrid (pGBKT7 / pGADT7, strain AH109). The protocol:
Yeast two-hybrid assays. Yeast two-hybrid assays were performed as described elsewhere^{14, 21}. The full length OsOTUB1.1 cDNA and an OsOTUB1 C-terminal fragment were amplified from ZH11 cDNA and inserted into pGBKT7 (Takara Bio Inc.), while the full length OsUBC13 cDNA and an OsSPL14 C-terminal fragment were inserted into pGADT7 (Takara Bio Inc.). Each of these plasmids was validated by sequencing before being transformed into yeast strain AH109. The required β-galactosidase assays were performed according to the manufacturer's (Takara Bio Inc.) protocol. Cells harboring either an empty pGBKT7 or an empty pGADT7 were used as the negative control. The entire OsOTUB1 sequence or a C-terminal fragment were used as the bait to screen a cDNA library prepared from poly(A)-containing RNA isolated from rice young panicles (<0.2 cm in length). The experimental procedures for screening and plasmid isolation followed the manufacturer's (Takara Bio Inc.) protocol.

Data set [5] has as its target T3, recombinant GST-OsSPL14 fusion protein, Q7EXZ2.
T3 chain: T1 chain

In data set [6] the target is T4, N-terminus of YFP-tagged deleted version of OsSPL14 (rice, UniProt Q7EXZ2 1-417).
T4 construct: not shown: N-terminal fragment of YFP
T4 sequence (looked up): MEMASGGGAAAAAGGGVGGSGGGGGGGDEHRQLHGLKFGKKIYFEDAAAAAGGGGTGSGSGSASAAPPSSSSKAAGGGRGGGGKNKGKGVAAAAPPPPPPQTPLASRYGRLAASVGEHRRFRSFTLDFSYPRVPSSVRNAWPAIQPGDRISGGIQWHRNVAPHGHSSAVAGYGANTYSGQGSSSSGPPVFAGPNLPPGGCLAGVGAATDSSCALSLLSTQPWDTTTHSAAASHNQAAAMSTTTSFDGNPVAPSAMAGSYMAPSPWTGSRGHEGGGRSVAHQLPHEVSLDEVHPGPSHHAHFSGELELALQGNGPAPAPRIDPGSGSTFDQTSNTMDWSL
Briefly: BiFC in rice protoplasts with deleted versions of OsSPL14. From the text: (a) BiFC assays. The N-terminus of YFP-tagged OsSPL14, SBP-domain or a deleted version of OsSPL14 was co-transformed into rice protoplasts along with the C-terminus of YFP-tagged OsOTUB1.1. Panels (from left to right): DAPI staining, YFP signal, differential interference contrast, merged channel. Scale bar: 10 μm. (b) Co-immunoprecipitation of OsOTUB1.1-GFP and OsSPL14. IB, Immunoblot; IP, immunoprecipitation. (c) Plant morphology. Scale bar: 20 cm. (d) Panicle morphology. Scale bar: 5 cm. (e) OsSPL14 transcript abundance. Transcription relative to the level of the ZH11 plants set to be one. Data shown as mean±s.e.m. (n=3). (f) The number of tillers per plant. (g) The number of grains per panicle. (h) Culm diameter. All phenotypic data were measured from the field-grown plants under normal cultivation conditions. Data in f-h shown as mean±s.e.m. (n=120). The presence of the same lowercase letter denotes a non-significant difference between means (P<0.05).

Data set [7] has as its target T5, YFP-fragment-tagged OsUBC13 (BiFC construct) (rice).
T5 construct: BiFC in rice protoplasts; not shown: YFP fragment from pSY-735-35S-cYFP-HA or pSY-736-35S-nYFP-EE
T5 chain: T2 chain
Kind of data set: BiFC in rice protoplasts.

In data set [8] the target is linear K63-linked tetra-ubiquitin (Boston Biochem).
The target in data set [9] is linear K48-linked tetra-ubiquitin (Boston Biochem).
Data set [10] concerns the target T6, OsUBC13 (rice).
T6 construct: Used for sentences that name OsUBC13 in general or cover several assay formats; also called E2 ubiquitin-conjugating protein
T6 chain: T2 chain
Briefly: summary sentence of Example 1.

The target of data set [11] is T7, OsSPL14 (rice, UniProt Q7EXZ2 1-417).
T7 construct: also called SBP-domain transcription factor OsSPL14
T7 sequence (looked up): T1 chain
Kind of data set: summary sentence of Example 1.

As for MBP-WTG1^D68E;C71S;H267R, the “in vitro deubiquitination assay (cleavage of His-UBQ10, SDS-PAGE and anti-His blot)” value in data set [1] is “MBP-WTG1^wtg1-1, MBP-WTG1^D68E;C71S;H267R and MBP did not cleave His-UBQ10”.

B1: Myc-OsOTUB1.1 (protein)
chain: MGGDYYHSCCGDPDPDLRAPEGPKLPYVGDKEPLSTLAAEFQSGSPILQEKIKLLGEQYDALRRTRGDGNCFYRSFMFSYLEHILETQDKAEVERILKKIEQCKKTLADLGYIEFTFEDFFSIFIDQLESVLQGHESSIGAEELLERTRDQMVSDYVVMFFRFVTSGEIQRRAEFFEPFISGLTNSTVVQFCKASVEPMGEESDHVHIIALSDALGVPIRVMYLDRSSCDAGNISVNHHDFSPEANSSDGAAAAEKPYITLLYRPGHYDILYPK
On to B1, for which, in data set [2], the “accumulation of Flag-OsSPL14 in rice protoplasts (immunoblot)” value is listed as “Myc-OsOTUB1 promoted the degradation of Flag-OsSPL14 only in the presence of either WT-, K63O- or K48R-linked ubiquitins” and the “ubiquitination of Flag-OsSPL14 in rice protoplasts (anti-Flag IP, anti-HA blot)” value is “In the presence of Myc-OsOTUB1.1, the titer of ubiquitinated Flag-OsSPL14 was clearly decreased in the presence of either K48R or K63O mutations, but it remained unaffected by the presence of either K48O or K63R mutations”.

B2: MBP-WTG1 (protein)
chain: B1 chain
Take B2: the “in vitro deubiquitination assay (cleavage of His-UBQ10, SDS-PAGE and anti-His blot)” value in data set [3] is “MBP-WTG1 was capable of cleaving His-UBQ10”.

B3: full length OsOTUB1.1 in pGBKT7 (enzyme)
chain: B1 chain
notes: Yeast two-hybrid bait; not shown: fusion partner encoded by vector pGBKT7
Consider B3, for which, in [4], the binding result is listed as “binds”.

B4: recombinant His-OsOTUB1 fusion protein (protein)
chain: B1 chain
For B4, the “degradation of GST-OsSPL14 in young panicle lysates (anti-GST western blot over time)” value in data set [5] is “the degradation of GST-OsSPL14 was accelerated in lysates made from ZH11-npt1 panicles in the presence of His-OsOTUB1”.

B5: C-terminus of YFP-tagged OsOTUB1.1 (enzyme)
chain: B1 chain
notes: BiFC construct expressed in rice protoplasts; also called cYFP-OsOTUB1; cYFP-OsOTUB1.1; not shown: C-terminal fragment of YFP from vector pSY-735-35S-cYFP-HA
Consider B5, for which the binding result in data set [6] is listed as “no binding”; in data set [7], “binds”.

B6: recombinant OsOTUB1.1 of the tetra-ubiquitin cleavage assay (protein)
chain: B1 chain
As for B6, the “cleavage of linear Lys63-linked tetra-ubiquitin (western blot, anti-ubiquitin)” value in [8] is reported as “it also displayed a moderate level of activity when presented with the Lys63-linked forms”. Further, the “cleavage of linear Lys48-linked tetra-ubiquitin (western blot, anti-ubiquitin)” value in data set [9] is listed as “it showed a strong cleavage activity when presented with Lys48-linked tetra-ubiquitin”.

B7: OsOTUB1 (enzyme)
chain: B1 chain
notes: Used for sentences that name OsOTUB1 in general or cover several assay formats; also called NPT1; DEP5
Turning to B7, the binding result in [10] and in [11] was “binds” throughout.

Source of the values: patent US20210017532A1 (INSTITUTE OF GENETICS AND DEVELOPMENTAL BIOLOGY CHINESE …, published 2021).
